In article PMC4632033:

Target: T1, XisR (YdaQ), rac excisionase (Escherichia coli K-12 (BW25113; MS match MG1655)) (UniProt P76057)
T1 sequence: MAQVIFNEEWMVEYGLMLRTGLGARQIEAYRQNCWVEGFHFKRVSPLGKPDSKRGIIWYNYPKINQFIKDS
Assay: EMSA
Details: LightShift Chemiluminescent EMSA kit protocol (binding buffer not stated), 25 C, 1 h; 0.5x TBE polyacrylamide gel; protein stored in 20 mM Tris-HCl, 500 mM …

Question: For “AGATTTCTTATGCTGGGCGTTCCGGCATGACGCATACTCTTCTGATGCCATATAACGAATTGAGTCGCTTTTAAATGTCGCAAAATCAAGAAATTAGTAAGAAAGAACAATACAACCTGAACAAGTAAGGGCAAAAATCACAACTCTCTGACTCATAAGTATTTTACTTATTTTTCAATGTGTTAAATATCATCAGCGACAACAATAAGCTACGATAATCCACTCTTTTTTTGCCCCTTTTTTGCCCCTTTTGCAGCGTTTTGCCCCATTTTTGCCACCGAAAAAAATTCCAAA (double strand) [AttR]”, which binding is on record?
Answer: Its binding is “binds”.

Question: For “CTATATGCCTTTGATGCGGAGGAATGAATGTGATGGGAGTGATGTATCTGAATAGTTGAAAAACCGCAGTCACGTCGTATGCAAGAACGTGCTGCGGTTGGTTTGACTTTGATTGAGACGTTTTGGAATTTTTTTCGGTGGCAAAAATGGGGCAAAACGCTGCAAAAGGGGCAAAAAAGGGGCAAAAAAAGAGTGGATTATCGTAGCTTATTGTTGTCGCTGATGATATTTAACACATTGAAAAATAAGTAAAATACTTATGAGTCAGAGAGTTGTGATTTTTGCCCTTAC (double strand) [AttM]”, which binding is on record?
Answer: Its binding is “no binding”.
